Test results published in a protein production outcome set (Wang et al. 2014).

Test: label from the status in PepcDB records

Sequence	protein production
MRALRGWPLAWFLLALAFAIRLLSLGSYPLMDTTEARYGEVARKMAELGDWITPWYDVGVPFWGKPPLAFWLSAGGQLLLGANEFASRLPHWLLGVLVLWLVWDWQAREDRRQARIACVLLGSSALFFVASGAVMTDMALALALVLAMRGFWLGLHGAEGIRRREGWLMFLGLGLGLLAKGPLTLILAGLPIGLWALLEWRWRALWRGLPWIRGSLLMLLVAAPWYLLAELKTPGFLEYFLLGEHWQRFVTAGWDGDRYGNAHAYPYGSVWLFLLAAAFPWSLWLPLLLWLGWRQRGEVVDGVASRRRYWLFWGLAPCLFFTFAGNVLWTYVLPGLPALALLAADLLRAPLARSAWLRRGGLACLALTPLLFALFLGSLLLGSRAEQKSTAALLASDAGWRERPLVFWPKRPYSAVFYSGGRAQRAEDSELAGWLRRDALLAIRSRSFGALPDEVRQRLRCRPPVGQYQLCQGVAPPG	failed
MSNSSQYYTRTAQFLHWIMAIIFISAWIIGFYSGNFLNYETDGSFKGDVITLHKNIATTIIFLVMIRIFWRYTHPTPELPATMSPLMKKLAHLGHLALYVILIALPISGCFYSWSAGHPAPVLYLFNIPQLIGENPEIMAIAKPVHVYLSWFAGLMVAGHILAALKHHFIDKDNVLKSMIKQSR	failed
MVDNKKKRQYPLVPLSVIQSALEEDPISIKMILKHYHSYIVKLCLTNGFNEAEQFITYVDEYMLRQLEIKLIEAILKFKINLEHHHHHH	failed
MPAPHPDSSVAPTTRLIAERALAAVFQPIVDLGSGTVVGYEGLIRGPRGTDLEPPAALFAQAARDGTTIALEQAAALACLDAFAALGCDGKLFLNFSAGTIVQLVRERERARQLLGRAGVGAERIVIELTEQTAMPDVARIEPAVASLRDAGIQFALDDYGTANASMNLWLRLHPDVVKIDRFFIHDIARDPLKFEAVRAMQHFAHASGAQLIAEGIENASDLIVVRDMGICCVQGFLLGRPNARPSPVVAPAARDAIRTPHIAVFPGAMRTARPAGTIAAKMLVPAPALPRDATSNDVLDLFNRMPGLHAVALVERGRPVALVNRRGFIDRFTLPYHREVFGKKPCLQFANDAPLMIDNATSVEQLAMLLASHDQRYLADGFVITEHGRYLGLGTGESLVRAVTEMRIEAARYANPLTFLPGNIPISAHIDRLLERDAGFHACYVDLNQFKPFNDQYGYWQGDEVLKFAATVLAGVCDPQRDFLGHVGGDDFLVLFQRDDWRARATDAIARFNDGAQRFYTQADRLAGGLRGEDRHGNPAFFGFVTMAIGAVGVPAGAHGAMRYGSDEIASVAALAKRRAKQQPGGLAVVDLDAGRAALRERGEPPLAAAG	failed
DRVTLEVGKVIQQGRQSKGLTQKDLATKINEKPQVIADYESGRAIPNNQVLGKIERAIGLKLRGKDIGKPIEKGPRAK	not failed
MKGEESVQLQSIEKRVSSGHSPSCAEILLSTIQEMNREENLLKALDLFTQRSLVLFDCDVAAIYLLEQGKYKPFSVSFRDDKDRETLMLREFPQDFREIGTEVVETDEEWVLALSHFGKTLGAYVLKGRRSQCRDEGSAVFVKQVISIISSFIFERILKIDSLSREQALTLLLRGTEILVRADSEEQLLSEAGEMAMEILFLPGGFFLLEGAGGTWEIRSPFGRLKQEMEWDWRTWVRQYISKEECCLRSAKVHFFDIENNPFKWERVWIHPLQTHSGVVGELWLMNAGKYLNDQEQEILTAFIRVVGVALETIRQREELARLANTDRLTGILNRQGFEQRVREEIASTLRRDSRFLFLVLDLDRFKQLNDTLGHPMGDRALKEIAQNLRCAVREQDIVARTGGDEFTVVLTDIALNEESLTVIERMRKSMHLEEYNLGVSIGVAEFPTEGRTYDELYRLADQRLYRGKNSGKGNIIAD	failed
MNTDNPKSHISRIAYPAIIVFLILTLLGSLVERFHPFTSWLTPPVALLMGLAYALIFGSTHRRANKLGSKVLLQYSVVGLGFGMNLGESLASGRDGMMFTIISVFGTLLLGWFIGRKILQMNRNTSALISAGTAICGGSAIAAVGPILKAEEHEMSVALGTVFLLNAVALFIFPSIGHWLALDQQQFGTWAAIAIHDTSSVVGAGSAYGEEALRVATTIKLTRALWIVPLTLVFSFVYKTKGAKRFPVPLFILFFIGAIILNTYLLEAYFPEVGRFVASLARKGLTLSLFFIGASLTKEVIASVGVRALLQGLFLWILISVGSLAFILLI	failed
MSRNRVMSIDFQQLPHAGIRSLIPYVPGKSIEELAKEKGITDIIKLASNENPLGCSPLALSVIQTMSSHYIATYPSPWNHPLMSKLASYLKVKPEQLFLSNGSDYLFNILLNCFALHTDRHILTHDYAFSTYAIQANSLQIPINSVPIGHNWEVNITDIVNACNQQTGIIFIANPNNPTGVLIQQEEIKYLLEQIPKSTLLVLDEAYYEFAASQLTVNSLDWLEEHPNLVVTRTFSKIYGMAGLRLGYAIANPSIINILKRVQLPFIVNQVALAAAYAAIDDDDFIQSSLKMNNEGMLQLQAGFNELNIKYLPSSCNFLTFDCEEDSMALYNYLLDNGIIVRPLHAYKMNNFIRVTIGTKEQNSRFLTALKNFYL	failed
MNSKTHLLLALTMLIWAGSFIFIKIGLKELDPFNLAFYRFLLASPLLMAWVFWKRGLAKPSGSEWLHLSVLALSGVTLLYAFQFLALKYTTATNASILINTSAVFVALWGLVKGEANPRKLAGVFLSFAGVVLIVSKGTLEFFSSKTIFGDVLMIVDGFLWAVYTVLGSKMLLKYDHETLTAYAFALGTIFLIPFALMSGFANPVTFNPETVAALLYLSILCSVFAYVVWYYALTNADSTSVAVYVYLVPLFTAIFAFYALNEKPDFFTAIGGIITIAGVYLTTAKQHQ	failed
MKRSDKYTDDYIEQRYESQRPHYNTYYQPIGKPPKKKKSKRIFLKAIITILILLIIFFGVMYFISSRANVDDLKSIENKSDFVATENMPNYVKGAFISMEDERFYKHHGFDIKGTTRALFSTISDRDVQGGSTITQQVVKNYYYDNERSFTRKIKELFVARKVEKQYSKNQILSFYMNNIYYGDNQYTVEGAANHYFGVTVDKNNSNMSQISVLQSAILASKVNAPSVYDVNDMSNNYINRVKTNLEKMKQQNFISESQYQEAMSQLGN	not failed
MGTSDEEIDRLLGKLTPRARALLLNGATTWRTRAEPAVELRELVMSDGPAGVRGEAWDERSTSLLLPSASALAATWDEALVEDLGGLLAAEARRKGVDVLLAPTLNLHRSPLGGRHFECLSEDPELTGRIGAALVRGIQAHGVAATAKHYVANDSETDRLTVDVRVGERALREVYLAPFEAAVAAGVRLVMAGYNAVNGTTMTANALLTDPLKSEWGFDGVVVSDWGAVRGTTGTARAGLDLAMPGPDGPWGEALARAVAEGAVPEPAVDDKARRLLRLAAWLGALGGRDVSRSPVPGRPADSPGAEGADGGAGAGPSSGAEGLPGRGPAHGAKPSGPRPRRAGDGRALARRAVAAGAVLLANKDVLPLDPEHLGTVAVIGAHAARTRTQGGGSAGVFPRGEVSVLDGIRAELRGRARVVHVPGPRPDGPAPPLDPDTCTDPRSGLPGVLLRMLDADGRELYAERRRGGRLLEPRLVPGAHTVEIRARLCPRTGGSWSLGVAGFGRMSLTTDGRTLLEGDFPPSTDDPAVMHVNPPAQYATADLTAGRDTLLVARRELAPGTGRATVLVAAPPAPDVTASLAEAVRAAGAADAAVVVVGTTEHGESEGYDRTDLALGATQDALVRAVAAANPRTVAVVNSGGPVELPWREQAGAVLLAWFPGQEGGGGLADVLFGHAEPGGRLPTTWPAVLADAPVTRTRPDGGRLDYDEGLHLGHRGWLRHHRTPAYWFGHGLGYTTWRYEELTVPPVTRAGDGLTVRVRVRNTGARAGREVVQVYLARPASALDRPARWLAGYTAVRARPGETVTATVRVPARALRHWSVAEHAWRTEAGPCRVLAGRSAGDVPLAAEVEVVPTASA	failed
MRELLKVTLIVMLVLINAFFVACEFAMVKLRSSRIDTMITEGNNNAKRCKIIKDNLNSYLSACQLGITLCSLALGWMGESTVKELILPIVSVFNLSESIIYTISISISFLIITMMEVVIGELVPKALALYNTEKIMLSTSFLLVGFYKLTYPIIYFFNLSTDLFLKPFGYSQADEVDEPHTGDEIRLLVEESYKSGLIDESEQRLVDNIFEFEEKKIREIMVPRTDMVCIYESDSEEKILAILKEEGVTRYPVCRKNKDDILGFVHIRDLYNQKINENKIELEEILRDIIYISENLTIDKALERIRKEKLQLAIVVDEYGGTSGVVTIEDILEEIVGEIQDEFDKEETHIKKIGAGSYLVDGTESINYINKYFGLDIEHDGFDSIGGWISYMLGSNIKVNQSVTFENYNFTILELDKLRVVKLIIKSVI	failed
MTRRRKILTGVLALVVLAAGGLAAARALGPGGTRVTAYFDRAIGVYAGSDLRILGVRVGEVESVDPEGTRVRVGLRLDDGIKVPEDARAVVVAPSVVADRYVQLTPAYRTGPALADGAVLPASRNHVPVEIDQIYDSITELGDALGPDGANADGALSELLRTGADNLDGNGEAIGDGVEQFGKAAKTLDGSSGDLFETLSSLQTFTTMLKNKDTDVRTAQERLDEVVSFFADNKDDLTGALEELGKALGQVKTFIEDNRGELKKNVDRLVPITRTLVEQRASLAEALDVAPLAADNVVNAYNPDTRTLDGRANLNEISSGGPLLPLPVAGTEKGEGRLEHHHHHH	not failed
MEKVTKMISRMMVRVVTVAFALSLVAVACHEAEARAGGGRSFGSRGTRTYRPPTRTVDPAPASRPQPAPAVPQTFPQQRQGGSFLRSMAGGIVGGLLGGMLFRSLGFAGPGAGGVGLFDILLIGGILYLVYRFVASRRREAAATAGRAPDWSREEPVTPQQYRYGQPAESVPAAGADSGLAHVRQMDGSFSEEQFRQLAQDVFFRVQGAWTRRDLSSAREVLAPEMERALQGDVAELKARGQVNRLENIAVRQVELVEAWQEEGCDFITVRFLANLLDYTTDEEGRVLSGSDREPVKFEEFWTFTRPVGPNPWKLSAIQQA	failed
MIILRRLSKEKHHQVNPLWHIYRKIKFVKVLKQTLIIEIARFVPSMKLKNKIYKKLLKMDVGNHTSFAYKVLPDLFYPEYISVGKNTVIGYNTTILTHEVLVDEWRVGKVIIGDYTLIGANTTILPGITIGNHVKIGAGTVVSKDVPDYSFAFGNPMQIQLDSGGDNEWHKKKITSFQ	failed
MTITSFGPANRIARTAETHPLTWRLRDDGEPVWLDEYQTKDGYAAARKALTQQAPDDIVQSVKDSGLKGRGGAGFPTGVKWGLMPKDESMNIRYLLCNADEMEPNTWKDRMLMEQLPHLLIEGMLISARALKAYRGYIFLRGEYVTAAKHLNRAVAEAKAAGLLGKNILGTGFDFELFVHTGAGRYICGEETALINSLEGRRANPRSKPPFPAAVGVWGKPTCVNNVETLCNVPAIVNNGNDWYKSLAREGSEDHGTKLMGFSGKVKNPGLWELPFGVQARELFEDYAGGMRDGFTLKCWQPGGAGTGFLLPEHLDAQMYAGGIAKVGTRMGTGLAMAVDDSVNMVSLLRNMEEFFAQESCGFCTPCRDGLPWSVKILRAIENGHGQPGDIETLLGLVNFLGPGKTFCAHAPGAVEPLGSAIKYFRSEFEAGIAPASAAMLVPGKSPTVVGALEHHHHHH	failed
HPKLVSSTPAEGSEGAAPAKIELHFSENLVTQFSGAKLVMTAMPGMEHSPMAVKAAVSGGGDPKTMVITPASPLTAGTYKVDWRAVSSDTHPITGSVTFK	not failed
MPKHEFSVDMTCGGCAEAVSRVLNKLGGVKYDIDLPNKKVCIESEHSMDTLLATLKKTGKTVSYLGLE	not failed
